Tests used:
FcγRIIIA = FcγRIIIA (UniProt P08637); experiment: ELISA
[1] = target: soluble monomeric FcγRIIIA, the extracellular region of FcγRIIIA joined to the linker-AVITAG sequence (UniProt P08637); experiment: yeast display FACS; 0.1 µM biotinylated FcγRIIIA-linker-avitag chased with unlabeled monomer
[2] = target: FcγRIIB-Fc fusion protein, soluble dimeric: extracellular domain of FcγRIIB fused to the hinge-CH2-CH3 domain of human IgG2 (human) (UniProt P31994); experiment: ELISA
[3] = target: FcγRIIB-Fc fusion protein, soluble dimeric: extracellular domain of FcγRIIB fused to the hinge-CH2-CH3 domain of human IgG2 (human) (UniProt P31994); experiment: BIAcore
[4] = target: soluble monomeric FcγRIIIA, the extracellular region of FcγRIIIA joined to the linker-AVITAG sequence (UniProt P08637); experiment: BIAcore
[5] = target: FcγRIIB-Fc fusion protein, soluble dimeric: extracellular domain of FcγRIIB fused to the hinge-CH2-CH3 domain of human IgG2 (human) (UniProt P31994); experiment: BIAcore, antibody captured on BSA-FITC
[6] = target: soluble monomeric FcγRIIIA, the extracellular region of FcγRIIIA joined to the linker-AVITAG sequence (UniProt P08637); experiment: BIAcore, antibody captured on BSA-FITC
FcγRIIIA 158F, soluble = FcγRIIIA 158F, soluble (UniProt P08637); experiment: BIAcore, 2B6 captured by soluble CD32B
Chain of FcγRIIIA 158F, soluble (P08637 17-208 limits assumed): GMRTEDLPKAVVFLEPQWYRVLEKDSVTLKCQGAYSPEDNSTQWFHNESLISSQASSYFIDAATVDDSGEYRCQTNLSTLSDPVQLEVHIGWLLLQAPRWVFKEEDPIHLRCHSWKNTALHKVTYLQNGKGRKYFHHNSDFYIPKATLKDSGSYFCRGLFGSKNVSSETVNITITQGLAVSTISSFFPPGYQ

FcγRIIIA 158V, soluble = FcγRIIIA 158V, soluble (UniProt P08637); experiment: BIAcore, 2B6 captured by soluble CD32B
Chain of FcγRIIIA 158V, soluble (P08637 17-208 F176V limits assumed): as the sequence (P08637 17-208 limits assumed) above, with F160V counted along it

Chain of FcγRIIIA (P08637 17-208 limits assumed): as the sequence (P08637 17-208 limits assumed) above
Chain of soluble monomeric FcγRIIIA, the extracellular region of FcγRIIIA joined to the linker-AVITAG sequence (P08637 17-208 limits assumed): as above
Chain of FcγRIIB-Fc fusion protein, soluble dimeric: extracellular domain of FcγRIIB fused to the hinge-CH2-CH3 domain of human IgG2 (human) (P31994 43-217 limits assumed): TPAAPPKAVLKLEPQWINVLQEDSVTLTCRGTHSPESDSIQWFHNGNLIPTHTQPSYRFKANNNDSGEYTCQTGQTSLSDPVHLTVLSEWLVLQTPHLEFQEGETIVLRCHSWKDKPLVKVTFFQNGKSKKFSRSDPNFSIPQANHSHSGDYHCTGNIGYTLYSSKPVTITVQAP

ch4-4-20 P396L (from UniProt P01857 1-330) (antibody)
ELISA binding increase vs wt (FcγRIIIA): 1 x | loss of cell staining after 1 minute with unlabeled FcγRIIIA [1]: 50%

ch4-4-20 antibody, wild-type Fc (chimeric anti-fluorescein, IgG1)
ELISA, OD [2]: 0.4 OD | ELISA IIIA binding vs wt (FcγRIIIA): 1 | ELISA, OD (FcγRIIIA): 0.5 OD | Kd [3]: 94 nM | Kd [4]: 198 nM | Kd [5]: 61.4 nM | Kd [6]: 319 nM

ch-mAb 2B6 (chimeric anti-CD32B), wild-type IgG1 Fc (antibody)
koff (FcγRIIIA 158F, soluble): 0.434 s⁻¹ | koff (FcγRIIIA 158V, soluble): 0.192 s⁻¹

Source: patent US20080138349A1
